According to the supplement of paper PMC10598134:
± gives the standard deviation.

Assay: collision cross section of modified peptide (TIMS, N2, iRT-aligned); higher = larger / more extended gas-phase ion
Summary of the method: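 Collision cross section values rest on the Mason-Schamp equation applied to calibrated, run-aligned mobility data from synthetic peptides. Mobility (1/K0) was calibrated with three reference ions and aligned per run to the median iRT peptide deviation, and 1–3 technical replicates of the most abundant feature per charge state were averaged. Data came from a timsTOF Pro/HT in dda-PASEF mode (nitrogen, ~2.4 mbar) after a 120-min nanoflow C18 gradient at 60 °C.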

[1] = charge state: 3, modification: Methyl (R)
[2] = charge state: 2, modification: GlyGly (K)
[3] = charge state: 3, modification: GlyGly (K)
[4] = charge state: 2, modification: Propionyl
[5] = charge state: 2, modification: Nitro (Y)
[6] = charge state: 2, modification: Methyl (K)
[7] = charge state: 3, modification: Methyl (K)
[8] = charge state: 2, modification: Succinyl
[9] = charge state: 2, modification: hydroxyisobutyryl
[10] = charge state: 2, modification: Glutarylation
[11] = charge state: 2, modification: Dimethyl (K)
[12] = charge state: 3, modification: Dimethyl (K)
[13] = charge state: 2, modification: Trimethyl (K)
[14] = charge state: 3, modification: Trimethyl (K)

## LRQQLQAK [_LR(Methyl (R))QQLQAK_]
Charge state: 2, modification: Methyl (R)
  collision cross section: 356.39 ± 9.6 Å²
[1]
  collision cross section: 413.25 ± 2 Å²

## ITGKNQVTATK [_ITGK(GlyGly (K))NQVTATK_]
[2]
  collision cross section: 373.22 ± 0.38 Å²
[3]
  collision cross section: 442.8 ± 1.1 Å²

## VDVEVPDVSLEGPEGKLK [_VDVEVPDVSLEGPEGK(Butyryl)LK_]
Charge state: 2, modification: Butyryl
  collision cross section: 469.33 ± 0.49 Å²

## LQAAYAGDKADDIQK [_LQAAYAGDK(Propionyl)ADDIQK_]
[4]
  collision cross section: 432.96 ± 1.1 Å²

## SYVDTGGVSR [_SY(Nitro (Y))VDTGGVSR_]
[5]
  collision cross section: 342.4 ± 0.16 Å²

## GGFQNRGGGSGGGGNYR [_GGFQNR(Methyl (R))GGGSGGGGNYR_]
[1]
  collision cross section: 475.78 ± 6.5 Å²

## TEVLSPNSKVESK [_TEVLSPNSK(Malonyl)VESK_]
Charge state: 2, modification: Malonyl
  collision cross section: 400.58 ± 1.9 Å²
Charge state: 3, modification: Malonyl
  collision cross section: 444.22 ± 3.4 Å²

## AGPNASIISLKSDK [_AGPNASIISLK(Methyl (K))SDK_]
[6]
  collision cross section: 413.97 ± 1.5 Å²
[7]
  collision cross section: 479.63 ± 3.4 Å²

## PATSYVR [_PATSY(Nitro (Y))VR_]
[5]
  collision cross section: 318.95 ± 2.2 Å²

## SLKLNTAEDAK [_SLK(Methyl (K))LNTAEDAK_]
[6]
  collision cross section: 364.71 ± 0.36 Å²
[7]
  collision cross section: 470.64 ± 4.7 Å²

## VYIASSSGSTAIKK [_VYIASSSGSTAIK(Methyl (K))K_]
[6]
  collision cross section: 428.78 ± 1.9 Å²
[7]
  collision cross section: 495.87 ± 3.1 Å²

## KFGVLSDNFK [_K(Succinyl)FGVLSDNFK_]
[8]
  collision cross section: 376.58 ± 0.24 Å²

## VGVEVPDVNIEGPEGKLK [_VGVEVPDVNIEGPEGK(hydroxyisobutyryl)LK_]
[9]
  collision cross section: 459.37 ± 1.3 Å²

## GGPGSTLSFVGKR [_GGPGSTLSFVGK(Propionyl)R_]
[4]
  collision cross section: 384.23 ± 0.44 Å²

## IVFSGNLFQHQEDSKK [_IVFSGNLFQHQEDSK(Gluratylation)K_]
[10]
  collision cross section: 499.16 ± 1.4 Å²
Charge state: 3, modification: Glutarylation
  collision cross section: 531.31 ± 9.1 Å²

## DDSFLGKLGGTLAR [_DDSFLGK(Dimethyl (K))LGGTLAR_]
[11]
  collision cross section: 416.68 ± 0.75 Å²
[12]
  collision cross section: 473.5 ± 1.2 Å²

## LEKTIDDLEEK [_LEK(GlyGly (K))TIDDLEEK_]
[2]
  collision cross section: 403.14 ± 0.36 Å²
[3]
  collision cross section: 473.69 ± 1.1 Å²

## VSPASSVDSNIPSSQGYKK [_VSPASSVDSNIPSSQGYK(hydroxyisobutyryl)K_]
[9]
  collision cross section: 468.85 ± 0.27 Å²
Charge state: 3, modification: hydroxyisobutyryl
  collision cross section: 562.43 ± 0.42 Å²

## LELAQYR [_LELAQY(Nitro (Y))R_]
[5]
  collision cross section: 326.89 ± 0.56 Å²

## TLDEILQEKK [_TLDEILQEK(Trimethyl (K))K_]
[13]
  collision cross section: 388.3 ± 0.013 Å²
[14]
  collision cross section: 439.75 ± 2.4 Å²

## DDSFLGKLGGTLAR [_DDSFLGK(Trimethyl (K))LGGTLAR_]
[13]
  collision cross section: 427.63 Å²
[14]
  collision cross section: 472.67 ± 1.8 Å²

## ASEALLKQLK [_ASEALLK(Methyl (K))QLK_]
[6]
  collision cross section: 369.33 ± 0.7 Å²
[7]
  collision cross section: 450.1 ± 3.1 Å²

## SGNLTEDDKHNNAK [_SGNLTEDDK(Dimethyl (K))HNNAK_]
[12]
  collision cross section: 479.84 ± 1.3 Å²

## IVEKYGYTHLSAGELLR [_IVEK(GlyGly (K))YGYTHLSAGELLR_]
[3]
  collision cross section: 548.84 ± 0.37 Å²

## FLQEFYQDDELGKK [_FLQEFYQDDELGK(Formyl)K_]
Charge state: 2, modification: Formyl
  collision cross section: 444.03 ± 0.77 Å²

## SRGAIISQYYNR [_SR(Methyl (R))GAIISQYYNR_]
[1]
  collision cross section: 476.32 ± 1.6 Å²

## LLEQKTQESQK [_LLEQK(Methyl (K))TQESQK_]
[6]
  collision cross section: 404.61 ± 2.3 Å²
[7]
  collision cross section: 458.64 ± 4.9 Å²

## ITESVAETAQTIKK [_ITESVAETAQTIK(Succinyl)K_]
[8]
  collision cross section: 424.69 ± 1.1 Å²
Charge state: 3, modification: Succinyl
  collision cross section: 512.63 ± 2.6 Å²

## ANEKTESSSAQQVAVSR [_ANEK(Biotin)TESSSAQQVAVSR_]
Charge state: 2, modification: Biotin
  collision cross section: 464.95 ± 0.23 Å²
Charge state: 3, modification: Biotin
  collision cross section: 569.61 ± 0.95 Å²

## DFDTALKHYDK [_DFDTALK(Methyl (K))HYDK_]
[6]
  collision cross section: 393.99 Å²
[7]
  collision cross section: 458.02 ± 4 Å²

## SLKLNTAEDAK [_SLK(Dimethyl (K))LNTAEDAK_]
[11]
  collision cross section: 369.7 ± 0.36 Å²
[12]
  collision cross section: 468.91 ± 1.6 Å²

## VNVEAPDVNLEGLGGKLK [_VNVEAPDVNLEGLGGK(GlyGly (K))LK_]
[2]
  collision cross section: 470.77 ± 1.4 Å²
[3]
  collision cross section: 551.19 ± 1.1 Å²

## ASAISIKLGSSK [_ASAISIK(Gluratylation)LGSSK_]
[10]
  collision cross section: 376.68 ± 0.1 Å²
